Laboratory results: patent publication US20050042747A1, “Hivgp120-induced bob/gpr15 activation” (priority 2001, published 2005)

How the values were obtained:
GPR15/Bob (human) = GPR15/Bob (human) (UniProt P49685); assay: cell-based or functional assay
CCR5 = CCR5 (UniProt P51681); assay: cell-based or functional assay
CXCR4 = CXCR4 (UniProt P61073); assay: quantitative cellular enzyme-linked assay on HT-29-D4 cells

GPR15/Bob (human), sequence (P49685 whole entry): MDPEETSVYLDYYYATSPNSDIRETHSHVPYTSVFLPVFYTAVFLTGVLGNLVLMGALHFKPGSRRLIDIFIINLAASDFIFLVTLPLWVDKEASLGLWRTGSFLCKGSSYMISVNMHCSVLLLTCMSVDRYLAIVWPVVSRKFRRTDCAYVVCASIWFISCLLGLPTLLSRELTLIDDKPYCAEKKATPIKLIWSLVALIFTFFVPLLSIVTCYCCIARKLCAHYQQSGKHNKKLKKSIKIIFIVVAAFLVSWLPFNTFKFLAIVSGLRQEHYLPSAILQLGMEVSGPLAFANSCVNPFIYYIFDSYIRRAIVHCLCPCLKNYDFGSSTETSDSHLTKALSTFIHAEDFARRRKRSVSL

In the case of gp120CM235 (ligand), the least gp120 concentration inducing calcium signaling, Bob-transfected Ghost (3) cells (GPR15/Bob (human)) is reported as 8 pM, the minimal concentration causing calcium signaling in HT-29 cells (GPR15/Bob (human)) is reported as 2.5 nM and the minimal gp120 concentration giving a calcium flux, transfected Ghost (3) cells (GPR15/Bob (human)) is reported as 10 pM.
With “gp120(IIIB), purified from HIV-1(IIIB) (from UniProt P03375 33-511) (ligand)” the relative TEER 20 min after the addition of gp120, HT-29-D4 cells (relative TEER) (GPR15/Bob (human)) was 1.6.
In the case of “gp120SF2 (from UniProt P03378 32-509) (ligand)”, the calcium signaling in HT-29 cells (GPR15/Bob (human)) is reported as greater than 10 nM.
Substance gp120(SEN) (ligand) has a relative TEER 20 min after the addition of gp120, HT-29-D4 cells (relative TEER) (GPR15/Bob (human)) of 2.52.
For “gp120MN (from UniProt P05877 32-513) (ligand)”, the calcium signaling in HT-29 cells (GPR15/Bob (human)) was greater than 10 nM.
For gp12093TH975 (ligand), the minimal gp120 concentration giving a calcium flux, transfected Ghost (3) cells (CCR5) was 100 nM and the calcium signaling in HT-29 cells (GPR15/Bob (human)) was greater than 10 nM.
Work on “anti-CXCR4 mouse monoclonal antibody (clone 12G5)” yielded a concentration giving saturation binding (CXCR4) of 20 µg/mL.
